Laboratory results published in the supplement of paper PMC7125110.
± gives the standard error. For some assays here: Variants at the floor of the assay were thinned out.

B1: glmS ribozyme (parent)
chain: AUAAAAGCGCCAGAACUACAGAAAUGUAGUUGACGAGGAGGAGGUUUAUCGAAUUUUCGGCGGAUGCCUCCAAA

Key:
Conditions in all cases: with glucosamine-6-phosphate
glucosamine-6-phosphate [1] = variants of: B1; assay: kcat; higher = faster cleavage; RNA array
How it was run: (§1)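 Glucosamine-6-phosphate in HEPES/KCl/Mg(OAc)2 buffer, at 40 μM to 10 mM, was flowed over barcoded ribozyme variants transcribed in situ by E. coli RNA polymerase on sequenced MiSeq chips. Tracking was through a hybridised Cy3 probe at 37 °C. kobs, kcat and KM came from exponential decay fits and weighted Michaelis–Menten fits of normalised per-tile medians.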

glucosamine-6-phosphate [2] = variants of: B1; assay: self-cleavage kobs at 40 uM GlcN6P; higher = faster cleavage; RNA array
How it was run: as §1

glucosamine-6-phosphate [3] = variants of: B1; assay: self-cleavage kobs at 160 uM GlcN6P; higher = faster cleavage; RNA array
How it was run: as §1

glucosamine-6-phosphate [4] = variants of: B1; assay: self-cleavage kobs at 640 uM GlcN6P; higher = faster cleavage; RNA array
How it was run: as §1

glucosamine-6-phosphate [5] = variants of: B1; assay: self-cleavage kobs at 2500 uM GlcN6P; higher = faster cleavage; RNA array
How it was run: as §1

glucosamine-6-phosphate [6] = variants of: B1; assay: self-cleavage kobs at 10000 uM GlcN6P; higher = faster cleavage; RNA array
How it was run: as §1

glucosamine-6-phosphate [7] = variants of: B1; assay: KM; higher = weaker cofactor use; RNA array
How it was run: as §1

Variant | kcat (glucosamine-6-phosphate [1]) [s⁻¹] | self-cleavage kobs at 40 uM GlcN6P (glucosamine-6-phosphate [2]) [s⁻¹] | self-cleavage kobs at 160 uM GlcN6P (glucosamine-6-phosphate [3]) [s⁻¹] | self-cleavage kobs at 640 uM GlcN6P (glucosamine-6-phosphate [4]) [s⁻¹] | self-cleavage kobs at 2500 uM GlcN6P (glucosamine-6-phosphate [5]) [s⁻¹] | self-cleavage kobs at 10000 uM GlcN6P (glucosamine-6-phosphate [6]) [s⁻¹] | KM (glucosamine-6-phosphate [7]) [µM]
U47G C68G | 8.45e-05 ± 1.2e-05 | 5.34e-05 ± 1e-05 | 0.000166 ± 2.8e-05 | 8.26e-05 ± 1e-05 | 0.000104 ± 1.2e-05 | 7.41e-05 ± 6.8e-06 | –
C10A C68A | 1.98e-05 ± 3.8e-06 | – | – | – | – | – | –
U69C | 0.00361 ± 0.00043 | 0.000631 ± 3.9e-05 | 0.00145 ± 0.00011 | 0.00268 ± 0.0002 | 0.00383 ± 0.00039 | – | 201 ± 40
U31G G66C | 0.000137 ± 2.5e-05 | – | – | 4.89e-05 ± 1.1e-05 | 7.89e-05 ± 1.3e-05 | 0.000146 ± 3.1e-05 | 1360 ± 590
U31A U57G | 4.33e-05 ± 3.3e-06 | – | – | – | – | 3.33e-05 ± 1.1e-05 | 2970 ± 780
C10A C61A | 2.22e-05 ± 9.1e-06 | < 1e-05 | – | – | – | – | –
A52G C67A | 0.000584 ± 5.9e-05 | – | 7.46e-05 ± 2e-05 | 0.000199 ± 3.2e-05 | 0.000301 ± 8.4e-05 | 0.000533 ± 5.6e-05 | 1300 ± 300
C58G C68U | 4.76e-05 ± 7e-06 | – | 7.05e-05 ± 1.9e-05 | 5.45e-05 ± 1.2e-05 | 4.14e-05 ± 1.3e-05 | 4.34e-05 ± 7.8e-06 | –
A33U C61G | < 1e-05 | < 1e-05 | – | – | – | < 1e-05 | –
G9A C34G C67A | < 1e-05 | – | – | – | < 1e-05 | – | –
U45G U65A | 0.0042 ± 0.00043 | 8.89e-05 ± 2.1e-05 | 0.000296 ± 5.3e-05 | 0.001 ± 0.00012 | 0.00264 ± 0.0004 | 0.00326 ± 0.00059 | 1990 ± 290
C34A G51C | < 1e-05 | < 1e-05 | – | – | – | < 1e-05 | –
C11U U30A | 0.00152 ± 0.00047 | 8.01e-05 ± 1.1e-05 | 0.000252 ± 4.8e-05 | 0.000433 ± 7.8e-05 | 0.0011 ± 0.00021 | 0.0018 ± 0.00027 | 931 ± 450
G29U U49G | 0.000125 ± 2e-05 | – | – | – | 3.79e-05 ± 1.7e-05 | 8.25e-05 ± 1.9e-05 | 5270 ± 1900
A6C C16U | 0.000207 ± 4.9e-05 | – | – | – | 3.13e-05 ± 9e-06 | 8.88e-05 ± 1.1e-05 | –
C16G U69G | 4.98e-05 ± 9.6e-06 | – | 3.78e-05 ± 1.2e-05 | 5.32e-05 ± 1.1e-05 | 5.34e-05 ± 6.2e-06 | – | –
A53U G63C | < 1e-05 | – | – | – | – | – | –

Variant | kcat (glucosamine-6-phosphate [1]) [s⁻¹] | self-cleavage kobs at 40 uM GlcN6P (glucosamine-6-phosphate [2]) [s⁻¹] | self-cleavage kobs at 160 uM GlcN6P (glucosamine-6-phosphate [3]) [s⁻¹] | self-cleavage kobs at 640 uM GlcN6P (glucosamine-6-phosphate [4]) [s⁻¹] | self-cleavage kobs at 2500 uM GlcN6P (glucosamine-6-phosphate [5]) [s⁻¹] | self-cleavage kobs at 10000 uM GlcN6P (glucosamine-6-phosphate [6]) [s⁻¹] | KM (glucosamine-6-phosphate [7]) [µM]
C58U C61U | < 1e-05 | < 1e-05 | – | < 1e-05 | – | – | –
G40U U46G | 0.00101 ± 0.00013 | 2.93e-05 ± 1.4e-05 | 7.71e-05 ± 1.5e-05 | 0.000242 ± 3.9e-05 | 0.000669 ± 8.8e-05 | 0.000785 ± 0.00012 | 1860 ± 390
U56A U57C | 0.00014 ± 3.4e-06 | < 1e-05 | – | – | 7.84e-05 ± 1.5e-05 | 0.000115 ± 1.5e-05 | 2030 ± 160
A12C A53U | 0.015 ± 0.0038 | 0.000376 ± 4.9e-05 | 0.000867 ± 0.00013 | 0.00317 ± 0.00041 | 0.0103 ± 0.0019 | 0.0121 ± 0.0016 | 2160 ± 740
A12U G59A | 0.000207 ± 1.4e-05 | – | – | 3.84e-05 ± 8.7e-06 | 8.97e-05 ± 8.8e-06 | 0.000159 ± 1.8e-05 | 3140 ± 430
G43U | 4.89e-05 ± 4.3e-06 | < 1e-05 | – | 1.42e-05 ± 2e-06 | 3.98e-05 ± 1.6e-06 | 4.31e-05 ± 1.2e-06 | 986 ± 410
G29C C61A | 1.76e-05 ± 3.3e-06 | < 1e-05 | – | – | – | – | –
C10A C71G | 3.78e-05 ± 1.3e-05 | – | – | 5.99e-05 ± 2e-05 | – | – | –
C10A C71A | 1.51e-05 ± 2.9e-06 | – | – | – | – | – | –
A12C A14C | 0.00082 ± 0.00025 | – | 4e-05 ± 1.8e-05 | 7.98e-05 ± 2e-05 | 0.000201 ± 5.1e-05 | 0.000534 ± 0.0001 | 6190 ± 2800
A12U G43C | 1.4e-05 ± 1.4e-06 | – | < 1e-05 | < 1e-05 | – | – | 6950 ± 1500
A52G U56A | 0.00139 ± 0.00027 | – | 6.31e-05 ± 1.3e-05 | 0.000166 ± 2.9e-05 | 0.000441 ± 7.1e-05 | 0.00102 ± 0.00014 | 4470 ± 1300
U49G U54G C67A | 0.00023 ± 5.1e-05 | – | – | 0.000235 ± 5.1e-05 | 0.000269 ± 7.4e-05 | 0.000194 ± 3.6e-05 | –
A12G G29C | 0.000167 ± 5.4e-05 | – | – | 3.94e-05 ± 1.1e-05 | 4.98e-05 ± 1.3e-05 | 0.000123 ± 1.4e-05 | –
A15C U55A | 0.00649 ± 0.0016 | 0.000161 ± 2.8e-05 | 0.000516 ± 8.7e-05 | 0.00128 ± 0.00023 | 0.00484 ± 0.00095 | 0.0054 ± 0.00095 | 1920 ± 650
G59A C70U | 0.000157 ± 9e-06 | – | – | 4.24e-05 ± 8e-06 | 8.29e-05 ± 9.8e-06 | 0.000133 ± 1.1e-05 | 1970 ± 320
U49C C67G | < 1e-05 | < 1e-05 | < 1e-05 | – | – | < 1e-05 | –
